Biological target: the molecule itself
Experiment: AUC; sedimentation velocity and sedimentation equilibrium of the individual peptides N and N′, 20 °C

Protein | stoichiometry N
KLAALEKKLAALEKKTAALEYKLAAL [apCCTri-N] | 3
ELAALKEELAALKEETAALKYELAAL [apCCTri-N′] | 3

Reference: PMC12441935, “De novo designed 3-helix bundle peptides and proteins with controlled topology and stability” (Chemical Science, 2025)
